Measured values published in US9193790B2, “Use of antagonists of the interaction between HIV GP120 and A4B7 integrin” (priority 2006, dated 2015).
“Also recorded” adds a separate entry of the source. Ends that are not written are not given here.

Columns and labels:
[1] = target: T1, α4β7 integrin on CD8+ T-cells (Homo sapiens, UniProt P13612+P26010); assay: Flow cytometry: gp120 binding to RA-cultured CD8+ T-cells; conditions: peptide at 0.19 μM-12.5 μM (FIG. 8a)
T1 construct: Purified CD4+ T cells and NK cells were obtained by negative selection using magnetic beads; On NKs β7 integrin pairs with α4 integrin (CD49d); endogenous in cells; host or cells: freshly isolated NK cells; OKT3/IL2/retinoic acid-cultured PBMCs (CD8-depleted, i.e. CD4+ T cells) and CD8+ T cells from healthy donors
T1 sequence (P13612 34-1032): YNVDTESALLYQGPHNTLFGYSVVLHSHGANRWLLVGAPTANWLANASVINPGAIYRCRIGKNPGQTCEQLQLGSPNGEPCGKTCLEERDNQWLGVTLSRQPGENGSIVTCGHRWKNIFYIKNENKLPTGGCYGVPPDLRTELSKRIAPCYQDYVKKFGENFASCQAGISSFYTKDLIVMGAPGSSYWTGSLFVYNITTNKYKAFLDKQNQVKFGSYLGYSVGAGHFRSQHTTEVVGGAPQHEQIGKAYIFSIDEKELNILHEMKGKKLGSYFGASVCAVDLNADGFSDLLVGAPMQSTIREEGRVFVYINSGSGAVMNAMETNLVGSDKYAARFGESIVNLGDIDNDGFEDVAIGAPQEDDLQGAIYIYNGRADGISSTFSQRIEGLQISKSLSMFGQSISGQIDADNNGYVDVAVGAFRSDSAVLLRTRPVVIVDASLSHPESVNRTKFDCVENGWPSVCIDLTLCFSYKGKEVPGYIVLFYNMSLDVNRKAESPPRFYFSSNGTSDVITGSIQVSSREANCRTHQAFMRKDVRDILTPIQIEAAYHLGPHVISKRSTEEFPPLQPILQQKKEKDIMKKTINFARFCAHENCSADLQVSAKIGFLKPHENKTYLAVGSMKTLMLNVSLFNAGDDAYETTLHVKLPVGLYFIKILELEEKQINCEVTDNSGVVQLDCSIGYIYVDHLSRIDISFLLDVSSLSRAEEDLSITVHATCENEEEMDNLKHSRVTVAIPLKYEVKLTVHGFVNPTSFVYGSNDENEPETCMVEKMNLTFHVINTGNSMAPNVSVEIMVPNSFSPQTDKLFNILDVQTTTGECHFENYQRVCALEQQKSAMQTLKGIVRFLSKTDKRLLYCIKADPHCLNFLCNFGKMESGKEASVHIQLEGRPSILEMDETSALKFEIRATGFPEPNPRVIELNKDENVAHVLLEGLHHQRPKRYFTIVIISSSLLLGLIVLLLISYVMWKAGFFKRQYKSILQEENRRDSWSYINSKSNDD
T1 sequence (P26010 20-798): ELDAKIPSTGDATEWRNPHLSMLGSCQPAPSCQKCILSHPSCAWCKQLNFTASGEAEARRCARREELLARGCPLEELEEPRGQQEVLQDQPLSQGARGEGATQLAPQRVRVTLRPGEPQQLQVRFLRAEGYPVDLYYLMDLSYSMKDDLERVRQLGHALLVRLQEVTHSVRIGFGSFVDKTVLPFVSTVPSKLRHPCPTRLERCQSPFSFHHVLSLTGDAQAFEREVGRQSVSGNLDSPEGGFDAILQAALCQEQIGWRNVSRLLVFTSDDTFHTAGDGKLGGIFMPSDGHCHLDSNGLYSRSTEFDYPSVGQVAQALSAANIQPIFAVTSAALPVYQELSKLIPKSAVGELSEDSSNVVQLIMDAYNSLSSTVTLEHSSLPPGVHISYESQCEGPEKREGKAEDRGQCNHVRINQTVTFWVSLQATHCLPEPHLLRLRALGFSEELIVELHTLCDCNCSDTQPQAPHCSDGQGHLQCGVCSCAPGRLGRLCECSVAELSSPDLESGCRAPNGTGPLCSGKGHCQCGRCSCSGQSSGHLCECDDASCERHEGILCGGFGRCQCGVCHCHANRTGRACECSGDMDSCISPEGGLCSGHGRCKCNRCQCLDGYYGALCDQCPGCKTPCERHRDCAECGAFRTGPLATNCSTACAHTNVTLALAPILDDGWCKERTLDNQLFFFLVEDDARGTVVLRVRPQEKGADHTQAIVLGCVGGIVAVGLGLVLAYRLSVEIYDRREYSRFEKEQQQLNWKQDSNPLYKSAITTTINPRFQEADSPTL
Method: Cells and Reagents. Freshly isolated PBMCs were obtained from healthy donors and separated by Ficoll-Hypaque. Purified CD4+ T cells and NK cells were obtained by negative selection using magnetic beads (StemCell Technologies, Vancouver, BC). Cultured PBMCs were activated with OKT3, IL2 (201 U/ml) and retinoic acid (RA, 10 nM) unless otherwise specified. RA was obtained from Sigma Chemical (St. Louis, Mo.). Recombinant Ig-fusion proteins (MadCAM, VCAM-1, E-cadherin) were purchased from R&D Systems (Minneapolis, Minn.). Integrin antibodies were obtained from Serotech Laboratories Ltd. (Raleigh, N.C.) and Chemicon (Temecula, Calif.), while FITC, PE, APC surface marker antibodies were acquired from Beckton Dickinson (San Diego, Calif.). Cyclic peptides CWLDVC (SEQ ID NO:1) and the scrambled control peptide CDLWC (SEQ ID NO:31) were obtained from NeoMPS (San Diego, Calif.). Recombinant gp120s were produced and purified as described in supplemental methods, using hollow-fiber bioreactors (Fibercell Systems, Frederick, Md.). Integrin cDNA expression vectors were acquired from ORIGENE™ (ORIGENE is a trademark of OriGene Technologies, Inc., Rockville, Md.). […]
Recombinant gp120 protein labeling. […] Biotin incorporation was determined by reacting gp120s with 4′-hydroxyazobenzene-2-carboxylic acid-avidin conjugates (HABA) per the manufacturer's instructions (Pierce Chemical, Rockford, Ill.). […]

α4β7 integrin = target: T2, α4β7 integrin (Homo sapiens, UniProt P13612+P26010); conditions: fibronectin, VCAM, MadCAM (Vanderslice et al. 1997); cited from earlier work
T2 sequence (P13612 34-1032): T1 sequence (P13612 34-1032)
T2 sequence (P26010 20-798): T1 sequence (P26010 20-798)

CWLDVC (also: cyclic, kind of ring not given here)
inhibition of gp120-binding to RA cultured CD8+ T-cells by cyclic peptide [1]: inhibited by CWLDVC in a dose dependent manner | inhibition of binding of natural ligands to α4 / α4β7 integrin (α4β7 integrin): inhibit α4 integrin subunit binding to fibronectin, VCAM and MadCAM; also recorded: inhibit binding of all three natural ligands
